The text below walks through data of article PMC12750270, “Design and Preclinical Evaluation of a ^68Ga-Labeled Macrocyclic Peptide PET Probe Targeting Transferrin Receptor 1 in Colorectal Cancer” (ACS Omega, 2025).

In experiment [1] the target is T1, Recombinant human TfR1-Fc protein (TFR-H5264, Acro Biosystems) (human, UniProt P02786 101-760).
T1 construct: Transferrin receptor 1 (TfR1/CD71), human; As recalled, the supplier's TfR1 constructs hold the extracellular part (about Cys89-Phe760); source: bought: Acro Biosystems
Kind of experiment: SPR; Biacore 8K; recombinant human TfR1-Fc immobilized on the sensor chip; TR01 at 62.5–1,000 nM; as printed: 'acidic conditions (pH 2.0) using a running buffer containing TfR1 at 30 μg/mL'; global fit of association and dissociation curves. Conditions: both partners purified.

The target in experiment [2] is Transferrin Receptor 1 (TfR1/CD71) on human colorectal cancer cells (HT29: high expression); LOVO: low … (human (endogenous in HT29 and LOVO), UniProt P02786 1-760). Kind of experiment: cell-based or functional assay.
Chain of Transferrin Receptor 1 (TfR1/CD71) on human colorectal cancer cells (HT29: high expression); LOVO: low … (P02786 whole entry): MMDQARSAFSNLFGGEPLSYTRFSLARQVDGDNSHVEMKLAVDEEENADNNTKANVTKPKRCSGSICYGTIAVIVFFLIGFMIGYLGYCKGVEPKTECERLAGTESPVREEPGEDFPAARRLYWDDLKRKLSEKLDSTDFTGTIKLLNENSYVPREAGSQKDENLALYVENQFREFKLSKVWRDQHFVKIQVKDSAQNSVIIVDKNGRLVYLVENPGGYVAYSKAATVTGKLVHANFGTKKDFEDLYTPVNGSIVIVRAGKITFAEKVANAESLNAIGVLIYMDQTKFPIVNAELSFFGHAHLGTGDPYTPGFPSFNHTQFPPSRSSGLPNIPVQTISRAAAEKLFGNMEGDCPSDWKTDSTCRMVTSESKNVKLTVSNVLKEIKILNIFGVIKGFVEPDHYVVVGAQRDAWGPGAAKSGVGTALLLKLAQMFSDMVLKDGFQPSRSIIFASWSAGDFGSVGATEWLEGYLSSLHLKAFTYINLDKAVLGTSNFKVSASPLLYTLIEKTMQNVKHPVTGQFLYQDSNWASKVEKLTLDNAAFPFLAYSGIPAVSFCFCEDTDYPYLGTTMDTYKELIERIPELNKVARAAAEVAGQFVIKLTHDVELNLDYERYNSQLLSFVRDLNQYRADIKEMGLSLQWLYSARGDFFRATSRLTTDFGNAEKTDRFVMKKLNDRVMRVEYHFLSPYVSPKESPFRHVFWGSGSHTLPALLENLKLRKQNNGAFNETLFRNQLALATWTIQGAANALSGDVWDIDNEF

T1 sequence (P02786 101-760): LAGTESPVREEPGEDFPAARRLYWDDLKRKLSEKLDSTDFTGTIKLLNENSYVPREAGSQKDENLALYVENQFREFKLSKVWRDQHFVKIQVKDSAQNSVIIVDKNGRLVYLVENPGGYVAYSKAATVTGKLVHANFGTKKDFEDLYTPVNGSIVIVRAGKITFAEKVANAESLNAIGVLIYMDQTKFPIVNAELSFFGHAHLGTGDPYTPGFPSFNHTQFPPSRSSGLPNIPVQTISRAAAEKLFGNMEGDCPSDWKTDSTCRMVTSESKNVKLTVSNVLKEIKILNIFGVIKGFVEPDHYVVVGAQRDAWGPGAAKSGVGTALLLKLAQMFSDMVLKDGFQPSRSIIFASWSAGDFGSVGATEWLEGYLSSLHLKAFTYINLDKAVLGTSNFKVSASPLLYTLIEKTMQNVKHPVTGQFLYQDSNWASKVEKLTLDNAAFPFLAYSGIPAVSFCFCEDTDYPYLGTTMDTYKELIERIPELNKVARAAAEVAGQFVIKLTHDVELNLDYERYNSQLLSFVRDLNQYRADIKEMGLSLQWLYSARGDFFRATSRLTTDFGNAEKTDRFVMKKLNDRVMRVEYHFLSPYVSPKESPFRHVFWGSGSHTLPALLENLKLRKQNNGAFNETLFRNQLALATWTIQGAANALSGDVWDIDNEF

B1: NOTA-TR01 [cyclo(Ac-Ala-Val-Phe-Val-Trp-Asn-Tyr-Tyr-Ile-Ile-Arg-Arg-Tyr-NMe-Tyr-Cys)-PEG12-Lys-NOTA] (peptide)
peptide: AVFVWNYYIIRRYYCK
modifications: cyclo(Ac-Ala1 ... Cys15) as printed; N-terminal Ac; NMe-Tyr at position 14; PEG12 between Cys15 and the C-terminal Lys; NOTA on the Lys
notes: the 15-residue macrocycle, printed in three-letter code; position 14 is N-methyl-Tyr; C-terminal Lys that carries NOTA; joined to Cys15 through a PEG12 spacer (no amino acids); a thioether from an N-terminal chloroacetyl group is only surmised; also called unlabeled TR01; unlabeled NOTA-TR01; source: synthetic peptide, custom synthesized by A+ Peptide (Shanghai, China), >95% purity
B1: in experiment [1], the Kd was 22.3 nM, the off-rate constant (koff) was determined as 0.00173 s⁻¹ and the association rate constant (kon) stood at 77300 M⁻¹ s⁻¹.

B2: ^68Ga-NOTA-TR01 (peptide)
peptide: AVFVWNYYIIRRYYCK
modifications: cyclo(Ac-Ala1 ... Cys15) as printed; N-terminal Ac; NMe-Tyr at position 14; PEG12 between Cys15 and the C-terminal Lys; NOTA on the Lys, holding ^68Ga
As for B2, in experiment [2], the “biodistribution: tumor-to-muscle (T/M) ratio in HT29 tumor-bearing mice, 30 to 120 min postinjection (3.73, 5.10, 9.18)” value was 9.18; the “biodistribution: tumor-to-muscle (T/M) ratio in LOVO-bearing mice (low TfR1), 30 to 120 min postinjection (2.30, 3.16, 5.01)” value is 5.01; the “tumor-to-muscle (T/M) ratio in HT29 xenografts by micro-PET/CT with coinjection of excess unlabeled NOTA-TR01, 30 to 120 min (0.47, 0.45, 0.86)” value came out at 0.86; the “tumor-to-muscle (T/M) ratio in HT29 xenografts by micro-PET/CT, 30 to 120 min postinjection (2.79, 3.98, 7.88)” value was 7.88. Further, the “tumor-to-muscle (T/M) ratio in LOVO xenografts (low TfR1) by micro-PET/CT, 30 to 120 min postinjection (1.65, 2.30, 2.94)” value in experiment [2] worked out at 2.94.
